Measured values reported in the Immune Epitope Database (IEDB).

Legend:
HLA-A*26:01 = experiment: IEDB peptide-MHC binding, purified MHC/competitive/radioactivity; filed as Kd, often an IC50 or EC50 that approximates it; ≥ and ≤ were set here for values at or beyond the usual limits of such assays
HLA-A*29:02 = experiment: as above
HLA-A*30:01 = experiment: as above
HLA-A*32:01 = experiment: as above
HLA-A*01:01 = experiment: as above
HLA-A*30:02 = experiment: as above
HLA-B*08:01 = experiment: as above; conditions: source organism: Vaccinia virus WR
HLA-A*24:02 = experiment: IEDB peptide-MHC binding, purified MHC/competitive/fluorescence; ≥ and ≤ were set here for values at or beyond the usual limits of such assays; conditions: source organism: Vaccinia virus
HLA-A*02:01 [1] = experiment: as above; conditions: source organism: Vaccinia virus
HLA-B*39:01 = experiment: IEDB peptide-MHC binding, purified MHC/competitive/fluorescence; filed as Kd, often an IC50 or EC50 that approximates it; ≥ and ≤ were set here for values at or beyond the usual limits of such assays; conditions: source organism: Escherichia coli str. K-12 substr. MG1655
HLA-A*02:06 = experiment: IEDB peptide-MHC binding, purified MHC/competitive/radioactivity; filed as Kd, often an IC50 or EC50 that approximates it; ≥ and ≤ were set here for values at or beyond the usual limits of such assays; conditions: source organism: Vaccinia virus WR
HLA-A*02:01 [2] = experiment: as above; conditions: source organism: Vaccinia virus WR
HLA-A*02:03 = experiment: as above; conditions: source organism: Vaccinia virus WR
HLA-A*02:01 [3] = experiment: IEDB peptide-MHC binding, purified MHC/competitive/fluorescence; filed as Kd, often an IC50 or EC50 that approximates it; ≥ and ≤ were set here for values at or beyond the usual limits of such assays
HLA-A*02:02 = experiment: IEDB peptide-MHC binding, purified MHC/competitive/radioactivity; filed as Kd, often an IC50 or EC50 that approximates it; ≥ and ≤ were set here for values at or beyond the usual limits of such assays; conditions: source organism: Vaccinia virus WR
HLA-B*40:01 = experiment: IEDB peptide-MHC binding, purified MHC/direct/fluorescence; filed as Kd, often an IC50 or EC50 that approximates it; ≥ and ≤ were set here for values at or beyond the usual limits of such assays; conditions: source organism: Mammarenavirus juninense
[4] = source organism: Mammarenavirus brazilense
[5] = source organism: Lymphocytic choriomeningitis virus (strain Armstrong)
[6] = source organism: Mammarenavirus lassaense
[7] = source organism: Mammarenavirus guanaritoense

ELLGYCVSLF
Kd (HLA-A*26:01; [4]): 315 nM
Kd (HLA-A*29:02; [4]): 9340 nM
Kd (HLA-A*30:01; [4]): 1880 nM
Kd (HLA-A*32:01; [4]): 11000 nM
Kd (HLA-A*01:01; [4]): 3600 nM
Kd (HLA-A*30:02; [4]): 17400 nM

EPKISLLPL
Kd (HLA-B*08:01): 8.53 nM

FGNLSPETL
IC50 (HLA-A*24:02): 57800 nM
IC50 (HLA-A*02:01 [1]): 59500 nM

FHNDSTPRY
Kd (HLA-B*39:01): 3470 nM

FLNISWFYI
Kd (HLA-A*02:06): 0.667 nM
Kd (HLA-A*02:01 [2]): 0.0142 nM
Kd (HLA-A*02:03): 1.1 nM

FNKTIFLSE
Kd (HLA-B*08:01): 255 nM

FTFSNVCESV
Kd (HLA-A*02:01 [3]; source organism: Vaccinia virus Tian Tan): 8.4 nM

FTSDVKAAVI
Kd (HLA-A*26:01; [5]): 6430 nM
Kd (HLA-A*29:02; [5]): ≥ 30600 nM
Kd (HLA-A*30:01; [5]): 4970 nM
Kd (HLA-A*32:01; [5]): ≥ 69900 nM
Kd (HLA-A*01:01; [5]): 431 nM
Kd (HLA-A*30:02; [5]): ≥ 63000 nM

FVNFNSVKNL
Kd (HLA-A*02:06): 2200 nM
Kd (HLA-A*02:02): 2020 nM
Kd (HLA-A*02:03): 318 nM
Kd (HLA-A*02:01 [3]; source organism: Vaccinia virus L-IPV): 489 nM

FYSQESPQSY
Kd (HLA-A*26:01; [6]): 380 nM
Kd (HLA-A*29:02; [6]): 1.76 nM
Kd (HLA-A*30:01; [6]): ≥ 49500 nM
Kd (HLA-A*32:01; [6]): 9400 nM
Kd (HLA-A*01:01; [6]): 758 nM
Kd (HLA-A*30:02; [6]): 2930 nM

GEEFFHQYL
Kd (HLA-B*40:01): 10.2 nM

GTAKLRWFVE
Kd (HLA-A*32:01; source organism: Dengue virus 1 Brazil/97-11/1997): ≥ 21100 nM

GTDPYRPSF
Kd (HLA-A*26:01; [7]): ≥ 77900 nM
Kd (HLA-A*29:02; [7]): 11000 nM
Kd (HLA-A*30:01; [7]): ≥ 30300 nM
Kd (HLA-A*32:01; [7]): 2430 nM
Kd (HLA-A*01:01; [7]): 7150 nM
Kd (HLA-A*30:02; [7]): 5280 nM
